Experimental data reported in the domain aggregation screens of Martell et al. (2025).

Experiment: soluble fraction after stress (log2 fold change); higher = more stays soluble; pooled small domains, quantitative proteomics
Details: stress: 50 degC
Summary of the method: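 Each library was heated to 50°C as a stress step. The libraries, made up of small protein domains, were pooled and analysed at high throughput by quantitative proteomics. The reported value is the base-two logarithm of the fold change in each protein's soluble amount after stress, taken as a measure of aggregation propensity. The higher the value, the more protein stays in solution.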

| Sequence | soluble fraction (log2) |
| --- | --- |
| HMNDMWADITINANGKATLVVHTHEIKYLGLTGHLGKMEINGTAKEPVKDSSGDVVDYYFTFTDLDASMF | 0.0763 |
| HMRHTRQRQAVLDALVRSGQALSPQDLLGQAKSAVPSLNLSTVYRQIKGLQDAGQIVRVELPGQPPRFEM | -0.107 |
| HMQPLGHDLTERELDVLALMVTGMNNSEIADKLVVSRSTIKYHVSNILSKLQATSRTEAVAYALQQNLVH | -0.469 |
| HMTVKRNLVQEILRLKFRHPENFMPNRAFYQEVGINQMRWWDIFYGRKNINQEEYIALSKYF | -0.237 |
| HMTTTYEINDEMLKPLILEIFNKSKQRFGSTKIAPVLKREGYTASIAKVKTLMNELGIKPVNA | -0.319 |
| HMLIDQYPYSIIYRLIPHGRSNAVPAAQIVGLTKLDERSIRIYVEAMRREGHIIASSSKGYYFPASIEE | -2.83 |
| HMTTELDTTAITPIIQKVLKANPDVVAKYKAGQQQVIGFLMGQVMRELSTKPNPKELQSLIVAQLQQA | 0.0755 |
| HMYHPGFEALREVARQGSFIKAARALGISGPAVSKQIKSLEARLNLVLLHRTTRAVTLTEAGQRLTEILD | -2.07 |
| HMKSLHSEVTDRIRQLIVESHLQPGQRVPELEISRDLGVSRTPIREALKVLAAEGLVELLPLRGAMVK | 0.0612 |
| HMPTTNIRAFRLREADPESVKEALSMVMPKTSIYVDARTKSVLVVGLLDELARAAEIVALIDQP | -0.79 |
| HMDLDLNIDNYNFDDLLNLFGLKMKFSEDDLKKAKRSVLMTHPDKSGLDKQYFMFFTKAYKMLSQIYYFR | 0.42 |
| HMQTSETVYTTDKVNVRAGADTSSDKLGSVEKGTSLTRTGTDGDWSIIDYNGTTGYIKSEYLSATAPE | 0.133 |
| HMRAAEPTTDAQRDRRRRIVLTAMTMLQERGYDEIQMRDVAQQAGVALGTLYRYFPSKEQLFAHVLVE | -0.599 |
| HMIYSKSDLELFGIKKIDVMEENILMLILSEYELDQTPKNILIDEAVRLSKKFGADNAYKFVNATLDTLL | -0.944 |
| HMVNLLVTPLEELEINFRTLRALRKYNIYQLEDLLRFIKYNGFDALRIVPGMGIKSTEQLYEKLKDKNI | -0.236 |
| HMSDPVDDLLLRISQQAGVARGQLVAELNMLVQDRFGGNLRHEAAAVLMAKRYGIEFRDLLPALREHLVKN | -0.00206 |
| HMNSKMTYSELITSMENKEVESVKISSSGDVASVKLKNSKTEKEVKIPSLDSFMTYTEQYLKTGEITLEE | 0.175 |
| HMSSEMATLRSIVDNKQAEKVHGMMVDMFTASAMVQVYDKVNDENQAKMREMLKTQKGFQRMADFALSKI | -0.172 |
| HMINLNEVLANFQKSYPNLAGFKYDQGMDALVYEGNYIRLNGYMLSRINPTLFSMSPDDIFTYLKNGF | -2.53 |
| HMRLADHVVEKLLALVQERGLQPGQKLPAERQLAEVLGVSRTSVREAIQKLVSQGVLSARRGDGTYVQS | 0.00808 |
| HMTTVKDRVYEILKREIVLGKLKPGEPINIAVLSTKLNISSAPLREALNMLSRDGLVTLNPRKHAAVSE | -0.499 |
| HMGMAETTARILQLLGLLQSRRGWSGQELAERLGVTTRSVRRDVERLRELGYPVHASAGHGGGYQLGA | -1.8 |
| HMRADYVGGLDPAGDNFLALRTGPGSGYAMILPMGPGTFVTVLRRNGKWLLVELEDGTRGWAYGSYILG | -2.84 |

| Sequence | soluble fraction (log2) |
| --- | --- |
| HMNQSYQLWIKDDELGPTPRSVGVLNEHFEVDPAALTNYDAELLRRATFGISLEPRGGSPTGQP | -0.0224 |
| HMASAKTVAQSGTYKFAKTTAIKSSASDAASTVGTYYKGNTVNYNAKVTTNGQTWLRYTSYSGAQYYVKVS | -3.18 |
| HMGIAFDYDAGRFDQVPPNLVEKWQQAYPAVDVLSELRRMEAWASANPVNRKSNWQRFIVNWLTRAQDRAG | -0.215 |
| HMSRAMFEMHADWQPTDSIRGLLGRAGLPTDIAKLDQSRIGDFVNHWFGKPDRNTADSWNGLLVGWLKRTQ | -1.18 |
| HMITGSIQPKNGKYYAVLNLYDHTGKRRPKWVSTGYTVKGNKKKAQEVLNELTRRYSAQLPPSK | -0.512 |
| HMPRPFPELTTREHDILALIARGWSNGRIADHLSLSGKTVSNYVSNILGKLQVTARAEAAERAREAGMGQ | -0.00905 |
| HMEIEIPEELQNKFAEIPELKTAFESLTPGRQRAYVLYFSQPKQSKTREARIEKYIPHILDGKGMN | 0.111 |
| HMNTRWDDAAQTWLRKVIEQQPVLVQISAAKRLRDQAEQRAREAGEEVVTEQHVKRAGLELGFGEP | 0.0799 |
| HMGHEALSSKLDEIQGVGKEKRSLLLDHFKTFERIKNASMEELEAVPSLGKNTAKAVFRFFHS | 0.07 |
| HMLMNADVLVKYQEDHWIVISEKASQASDTFDKKEQAVERAKEIAKNKNSSVKVYKQDGTLQDTFDYS | 0.122 |
| HMKIGIYPGTFDPITHGHTDIIRRSLRVFDKVVVAVAPNPSKHPLFTLTERLEMIRIVMKELEHVEVT | 0.0231 |
| HMDKSLDFASIKSVEIATGRKFGWHALKKWSKSNSSEIKTIPDPNFGEVKTYHKDAWLAVYNINLSPILD | -0.404 |
| HMVVKSPLEMAFDKFREMRKKIRKPMTERAEELIWKELSKLAGEDSDLKIEILEQSIRNGWQDVYAVK | -0.265 |
| HMSTTYLNEGDRITLTDSVNIRTSMSETADRVGLAYQGDVVTVIMSYAEGWTKVSWNGQTGYAKTEYL | -0.617 |
| HMALDLNEDEKLLVELIEKAGGTAGLGELKEASGLSGKKWDKTTKNLSKEGLIKVEKNESGLWVHLT | 0.153 |
| HMQYFDIETEIQKFIKSENNLSDFDKETLQSFLYQLSKGSPEENTAKKVVDILNKFLPLTTAIINMIKALT | 0.168 |
| HMDIANEQEQIFITAMRNDDFNPILELKMKGYQPSKNVLKSLQPDVSSTTFIAAAKIFQMEGVL | -0.144 |
| HMDLANRSLDRGITILESLARNGASSLADLHRDSGIAKSTIRRLLGTLIQHRLVRRSVADGLYRVTIPLPA | -1.18 |
| HMPSYYKELQNYSPENPVVKKRKVHPDVVNAIKYLAEITDGNPMLIKAYAQMILAHVFTTMPLIDKSV | -0.128 |
| HMSTTGIVKWFNEEKGFGFITQDQGGADVFVHYRAIASEGFKTLAEGQKVSFEVEQGQKGLQAANVQA | 0.0843 |
| HMVVVVELTENEKAVQDVLTKNEGSLEISDLKTKLELSGKQWDKALKGLAKHGITQVAKVDGVVTVSL | -0.303 |
| HMKLIRIPFILTEGPDSQKITIDVDGDEEFRLGDVFEEDDKLWTVNQILVSGERKAKRSMAGEVMRISALR | -1.26 |
| HMPTTLEGIEKYLSSGLIKGIGPHLAGKLVEAFGTRVFEVVEHQPERLRTVGGIGRTRAESITSAWRDQ | -0.168 |

| Sequence | soluble fraction (log2) |
| --- | --- |
| HMRAMWENLFFQYKEGFLPEEYYKQGIATGIRLAGPKFVEMNIPMQKEFEDEVHRLLAEHEKSVK | -0.748 |
| HMTDTIALRSVIAESGLKYKALAEIMGLSPYTLQMKIDNESEFKASEIDALANALGMDMQQRDSIFF | -0.701 |
| HMHGQGTYTSPDGTKYVGDWQDEKMHGQGTYTYPDGMKFVGEFKDNKPWNGTGYDKYGNVKATFSNGVGKS | 0.066 |
| HMQRDDMQIDRLIQIVFLLLSRNNLTAKQLAEELGVSTRTIYRDINILSVAGIPITSQKGYGGGLSLLQG | -0.62 |
| HMLHSEDATVVRQAIPLLERHVDAATVAVARRNLAQLEQFGRYPRRNQALGRISNPAENAYLRAER | 0.0897 |
| HMPQTNIYPNPAFDKLFVSNLENETNFKIMDLFGRTIINSKTKGEISISELKSGIYIIEINNFRQKFVK | -0.839 |
| HMSDAGMNQIGDMFRAPDLMAKLAMNPATREYVSQPDFLAMMEEVKRNPSALNNHLRDPRMMNVLSVAM | -0.115 |
| HMSDPASLQRRLMSDPELTARILDSPFTRSLLDDPNLLRQMVNANPQLRRAMDANPQLRHAL | -0.21 |
| HMPTNSDRLIGSDGVVSSKIDNLQGTGKVYISGLTWSARTIDGSEAEEGDIVTVEKIEGATLYVTKR | 0.0599 |
| HMRLYTQDVAVLNRDVIQGEVITSDMVTTVNVHKRTVPTGALNLSEIPGNVAKFNIPASIPITASMVTK | 0.0171 |
| HMDKNNLLIIYRTNSEGTPYAFSVTPSAKSLDALHKDAKEMLPFLEKSMNNFFSIQIWERAEYLKY | -0.643 |
| HMDSTDSIIHYVRAHRSLEVKNLSFAEARFKKVVELEPNFARGWLGLGEVSILKNNFENASIYLDKALE | -0.463 |
| HMTNQEFNAAFKPFLDYFPTTEMTKEKINIYYLALSDLSKEQLGSAFISMVKNRVYKNFPQVAEIRQYATN | -0.0953 |
| HMSGIVPAAPPLRPDLDIKWHTGDKVRHAKWGEGTIVSVKGEGEETELKIAFPGQGIRPFMQKYAPITR | 0.163 |
| HMQNKFLDIVGEIEVKAVDYYLLKDTSGLVIKFPKNLVFANGLKIADNKIGLTVSLYGAWVHEET | -1.17 |
| HMGKIILLFSDDDGVFDTALYRVRNYDGHRFAQSLGNAEMKWRHSEDEYFDFVLTSLREDGYDIEEIE | -1.22 |
| HMAQLPADLSKVKSSQISDQQLTQIAQQAKNSGQSEQAVLQELKQRGLPDTEIQALGARISGLMQ | 0.137 |
| HMNEFGIPDKKLQDIETRVNSMSLEQLNAARSMLIDEQEALNSSTGSASSGRLKEIAAELSTIQKALIAIA | 0.163 |
| HMKRLPMRKIRDVLRLSADGLSTRKIGVSLTIGRTTVQAYLDRAAEVDLSWPLPPEMSDTDLERLIYPR | -3.39 |
| HMNHYIGVDRAKEIALNHANLSETDVVFTKEKLENDDGGAEYEIEFHSGRTEYDYTIDAASGNIIEYDVDY | 0.421 |
| HMAPEPFILSVDADGKYYIDDLEKTKQEILIYATALYQEKPTTDFLVRGDKSAAYNDVLQAMVVLKE | -0.0406 |
| HMPVSTLLGDNLRRLRTAKGYTQEAVADAARISVAAYRNYETGRAIPKVNTLLAIARALGVSLNDLVTE | -0.104 |
